Reference: patent US20190135865A1 (SORBONNE UNIVERSITE, published 2019)
Values belong to the binder of their own block, whether it stands above or below them. Non-standard residues stand in square brackets, D forms with d. No end group written: not given here. NMeR = CN[C@@H](CCCNC(=N)N)C(=O)O; Nle = CCCC[C@H](N)C(=O)O

Legend:
CD47 [1] = molecular target: T1, CD47 (UniProt Q08722 19-323, limits assumed); experiment: Microscale thermophoresis (MST); NT-647-labelled Jurkat or MEC-1 cell membrane preparation held constant, peptide titrated; cyclic peptide PKTD10, FIG. 6
T1 construct: whole, on cells; The assay used a labelled whole membrane preparation from Jurkat or MEC-1 cells, not purified CD47; also called CD47 receptor
Experimental: (§1) Jurkat or Mec-1 cell membrane preparations are labeled using the Nanotemper NT-647 labeling kit as described elsewhere.xliv The labeled preparation is eluted with PBS and stored at 4° C. A stock solution of each peptide is prepared in DMSO (5 mM) and then diluted with PBS. For the peptides evaluated by MST, we have kept the concentration of the NT.115-labeled membrane constant, while the concentration of the ligand (peptide) was varied. After a short incubation the samples were loaded into MST premium glass capillaries and the MST analysis was performed using the Monolith NT.115-pico. […]
(§2) Binding affinity measurements. The binding affinities of peptides, here PKT16, PKTD1, PKTD10, PKTD10-1, PKTD10-3, PKTD10-5, PKDT10-7 and PKTD10-8 for a membrane preparation from Jurkat and/or MEC-1 cells were measured by Microscale Thermophoresis ^xlv on a Monolith NT115-pico system (Nanotemper Technologies, Munich, Germany).
(§3) Binding curve measured by MST. […] A local temperature difference ΔT leads to a local change in molecule concentration (depletion or enrichment), quantified by the Soret coefficient ST: cₕₒₜ/ccold=exP(−STΔT). […] For the peptides evaluated by MST, we have kept the concentration of the NT.115-labeled membrane constant, while the concentration of the ligand (peptide) was varied.

CD47 [2] = molecular target: T1, CD47; experiment: Microscale thermophoresis (MST); NT-647-labelled Jurkat or MEC-1 cell membrane preparation held constant, peptide titrated; cyclic peptide PKTD1, FIG. 6
Experimental: as §1, §2, §3

CD47 [3] = molecular target: T1, CD47; experiment: Microscale thermophoresis (MST); NT-647-labelled Jurkat or MEC-1 cell membrane preparation held constant, peptide titrated; linear peptide PKT16, FIG. 5
Experimental: as §1, §2, §3

T1 sequence (Q08722 19-323 limits assumed): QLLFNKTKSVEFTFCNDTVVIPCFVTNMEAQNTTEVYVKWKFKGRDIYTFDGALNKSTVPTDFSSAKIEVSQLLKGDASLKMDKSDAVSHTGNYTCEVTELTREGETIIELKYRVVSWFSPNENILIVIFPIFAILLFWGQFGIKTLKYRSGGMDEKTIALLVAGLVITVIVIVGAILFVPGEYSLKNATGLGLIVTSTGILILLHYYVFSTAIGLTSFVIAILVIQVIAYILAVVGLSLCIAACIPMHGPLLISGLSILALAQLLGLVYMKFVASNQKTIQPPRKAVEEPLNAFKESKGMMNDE

Kd (CD47 [1]): 49 nM
B1: PKTD10 (peptide)
peptide: SRFYVVMWKPPGLSVKVVNS
HELM: PEPTIDE1{S.R.F.Y.V.V.M.W.K.[dP].P.G.L.S.V.K.V.V.N.S}$PEPTIDE1,PEPTIDE1,1:R1-20:R2$$$V2.0
SMILES: CSCC[C@@H]1NC(=O)[C@H](C(C)C)NC(=O)[C@H](C(C)C)NC(=O)[C@H](Cc2ccc(O)cc2)NC(=O)[C@H](Cc2ccccc2)NC(=O)[C@H](CCCNC(=N)N)NC(=O)[C@H](CO)NC(=O)[C@H](CO)NC(=O)[C@H](CC(N)=O)NC(=O)[C@H](C(C)C)NC(=O)[C@H](C(C)C)NC(=O)[C@H](CCCCN)NC(=O)[C@H](C(C)C)NC(=O)[C@H](CO)NC(=O)[C@H](CC(C)C)NC(=O)CNC(=O)[C@@H]2CCCN2C(=O)[C@H]2CCCN2C(=O)[C@H](CCCCN)NC(=O)[C@H](Cc2c[nH]c3ccccc23)NC1=O
notes: Cyclic peptide, linear representation -S-R-F-Y-V-V-M-W-K-p-P-G-L-S-V-K-V-V-N-S-

Kd (CD47 [2]): 1.9 nM
B2: PKTD1 (peptide)
peptide: SRFYVVMWKPPGISVKVVKS
HELM: PEPTIDE1{S.R.F.Y.V.V.M.W.K.[dP].P.G.I.S.V.K.V.V.K.S}$PEPTIDE1,PEPTIDE1,1:R1-20:R2$$$V2.0
SMILES: CC[C@H](C)[C@@H]1NC(=O)CNC(=O)[C@@H]2CCCN2C(=O)[C@H]2CCCN2C(=O)[C@H](CCCCN)NC(=O)[C@H](Cc2c[nH]c3ccccc23)NC(=O)[C@H](CCSC)NC(=O)[C@H](C(C)C)NC(=O)[C@H](C(C)C)NC(=O)[C@H](Cc2ccc(O)cc2)NC(=O)[C@H](Cc2ccccc2)NC(=O)[C@H](CCCNC(=N)N)NC(=O)[C@H](CO)NC(=O)[C@H](CO)NC(=O)[C@H](CCCCN)NC(=O)[C@H](C(C)C)NC(=O)[C@H](C(C)C)NC(=O)[C@H](CCCCN)NC(=O)[C@H](C(C)C)NC(=O)[C@H](CO)NC1=O
notes: Cyclic peptide, linear representation -S-R-F-Y-V-V-M-W-K-p-P-G-I-S-V-K-V-V-K-S-

Kd (CD47 [3]): 1600 nM
Binder: [dK][NMeR]FYVV[Nle]WK[dK] (also called linear PKT16 peptide) [PKT16 [(D)Lys-(N-Me)Arg-Phe-Tyr-Val-Val-Nle-Trp-Lys-(D)Lys]]
